Molecular target: purified human TNC protein (human) (UniProt P24821)
Assay: BLI

| Kd [pM] | Binder |
| --- | --- |
| < 1 | NJT4 (VHH, labelled with Texas Red via sortase-mediated tagging in the ex vivo imaging assay) VHH: QVQLVESGGGLVQPGGSLRLSCAASGFTFSSYTMRWYRQAPGKERELVAFIGVAGGSTKYADSVKGRFTISRDNTKNTVYLQMNTLKPEDTAVYYCYAPLTPYWGQGTQVTVSS |
| < 1 | NJT3 (VHH, labelled with Texas Red via sortase-mediated tagging in the ex vivo imaging assay) VHH: QVQLVETGGGLAQAGGSLRLSCAASGRTLSGYAMGWFRQAPGKEREFVAAISWSGRNTYYDYTVQGRFTISKDNAKNTVNLQMNSLKPEDTAVYYCAVSRSLDEFGDGYEMDYWGDGTQVTVSS |
| < 1 | NJT6 (VHH, labelled with Texas Red or 64Cu via sortase-mediated tagging in the imaging assays) VHH: QVQLVETGGDLVQPGGSLRLSCAASGLTLDYYAIGWVRQAPGKEREGVSCITPQDGNTYYDDSVMGRFTILRDNAKNMVYLQMNNLKPEDTAVYFCAAAGALTLDPSEYEYWGQGTQVTVSS |

Source: patent US20230348605A1
